This is an account of results in publication doi:10.1101/2024.12.27.630498 (bioRxiv, 2024).

This data set concerns the molecule itself. Nature of the data set: cryo-EM structure.

B1: Arabidopsis thaliana AKT1 (Arabidopsis K+ transporter 1), construct for the structure of AKT1 alone (natural protein)
chain: not shown
As usually defined, the stoichiometry N is the number of molecules, sites or subunits per partner or assembly. Regarding B1, the “stoichiometry N” value is 4.
